This data set is described as follows: soluble on expression in E. coli; label from the status in PepcDB or PDB records.
As for “SITSTVLPPVYNQQNEDTCIIRISVEDNNGNMYKSIMLTSQDKTPAVIQRAMSKHNLESDPAEEYELVQVISEDKELVIPDSANVFYAMNSQVNFDFILRKKN”, the “soluble on expression in E. coli” value is recorded as “soluble”.

As for “SKEGSVAPKERINIKYIPATGDAQAEVELPLKTLVVGDFKGHAEQTPLEERATVTVDKNNFEAVMRESELKITATVKNKLTDDENAELPVELNFKSLADFAPDAVASQVPELKKLIELREALVALKGPLGNIPAFRERLQSLLNSEESREKLLAELNLL”, the “soluble on expression in E. coli” value is on record as “not soluble”.

As for “SKEHQAVSLEAARQSLVLLKNETNLLPLSKSIRSIAVIGPNANEQTQLICRYGPANAPIKTVYQGIKELLPHTEVIYKKGCDIIDPHFPESEILDFPKTAEEVQLMEEAIRAAKQAEVVVMVLGGNELTVREDRSRTSLNLPGRQEELLKAVCATGKPIILVMLDGRASSINYAAAHIPAILHAWFPGEFCGQAVAEALFGDYNPGGRLAVTFPKSVGQIPFAFPFKPGSDESSSTSVYGALYPFGHGLSYTTF”, the “soluble on expression in E. coli” value was “not soluble”.

With “SKFIAKQSVGAEVIDTPRTEEEAWLLNTVEAQARQWNLKTPEVAIYHSPEPNAFATGASRNSSLIAVSTGLLDHMTRDEVEAVLAHEMAHVGNGDM”, the “soluble on expression in E. coli” value is given as “not soluble”.

As to “SKGRPQIDSSKATDKINPMDFTFVEINEAVKLVEMGVATPQDIDTAIKLGLNRPFGPFELAKQFGAEQIAKRLEELAKQFGKKIFEPAKTLKEGKLEELLKAGKAE”, the “soluble on expression in E. coli” value is reported as “soluble”.

In the case of “SKQDASRNAAYTVDCEDYVHVVEFNPFENGDSGNLIAYGGNNYVVIGTCTFQEEEADVEGIQYKTLRTFHHGVRVDGIAWSPETRLDSLPPVIKFCTSAADMKIRLFTSDLQDKNEYKVLEGHTDFINGLVFDPKEGQEIASVSDDHTCRIWNLEGVQTAHFVLHSPGMSVCWHPEETFKLMVAEKNGTIRFYDLLAQQAILSLESEQVPLMSAHWCLKNTFKVGAVAGNDWLIWDITRSSYPQNKRPVHMDRACLFRWSTISENLFATTGYPGKMASQFQIHHLGHPQPILMGSVAVGSGLSWHRTLPLCVIGGDHKLLFWVTEV”, the “soluble on expression in E. coli” value is recorded as “soluble”.

“SKTNPRLSSLIADLKSAARSSGGAVWGDVAERLEKPRRTHAEVNLGRIERYAQEDETVVVPGKVLGSGVLQKDVTVAAVDFSGTAETKIDQVGEAVSLEQAIENNPEGSHVRVIR”: the “soluble on expression in E. coli” value is recorded as “soluble”.

With “SLAAVQVVGSWPSVQPREAPREAIPERGNGFRLLSARLCALRPDDSSSARTEIHLLFDQLISENYSEGSGVAPEDVSALLVQACRLVPLNQNHLVSKVSQLIHHLLNRLQVIVDEQHLDFLLAYTISAIHQCSSWTHREILQALAALVYCNGSKCQKYLPELLGNTGLLMKLSDLAQSDPEVRRAAVHCMANLCLSVPGQPYLEEPYQNVCFQAFLTILQSPKSSDMDDITFCMLLQNALKGIQSLLNGGRMKLTQTDELGALLAVLKKFMFHGLPGLNIEMPTVLYPTPLPQYDGRTPIK”, the “soluble on expression in E. coli” value is listed as “soluble”.

On to “SLADYYQVQLNMMPPVNLTVLDHCVENYSWNQMMEQAKLYADMFGFHKYWSVDEDDISTGFTALRSIVMSSSNGQIKMPINEPVKSIMKGQIEEFNDFNGGPGIQHIAFRTNNIIETVMALMQRGVEFNHTSENYYNNLKQRLNNDGIKLYEDFDTLRSLNILIDYDPSEG”, for which the “soluble on expression in E. coli” value is reported as “not soluble”.

As to “SLAHIVTLNTPYREDWLTQLADVVTDPDELLRLLNIDADEKLLAGRSAKKLFALRVPRSFIDRMEKGNPDDPLLRQVLTSQDEFVVASGFSTDPLEEQHSVVPGLLHKYHNRALLLVKGGCAVNCRYCFRRHFPYAENQGNKRNWQTALEYVAAHPELDEMIFSGGDPLMAKEHELDWLLTQLEAIPHIKRLRIHSRLPIVIPARITEALVERFARSTLQILLVNHINHANEVDETFRQAMAKLRRVGVTLLNQSVLLRGVNDNAQTLANLSNALFDAGVMPYYLHVLDKVQGAAHFMVSDDEARQIMRELLTLVSGYLVPKLAREIGGEPSKTPLDLQLRQQ”, the “soluble on expression in E. coli” value is “not soluble”.

Take “SLASPKRWTTNGLSTNQTLCYTLGEGQPSPFFYLRSARKMPQSVEQHIAAITDRIKDFVRFLDREEVAPVLAELREMFARELRATEGFASHERELHDRIRHESDYEQLRAIHDELNVLEMERFLAISSVSALHANCTEYRDILADRALALAEDEMEHDGRGRAPCPYALCSMGSDGREEQTLITDQDYLIVYGDGGGEAADEWFREFSELIVERLAQIGFKKCTGDIMPSNPTWRGSLSQWRRKLLAIVRYEYEDYAKNLMDLIVISDARHVAGDRDLAATLIATIRALEKDYFQVLWGMAKAATEMKLALGFLKRLWTEGSGEHKGEFNLKLLAWAPLVMNVRILAINQGVPATNTVKRIEHLAREGSFSPSFANGLVEAYEVLTRHRILLQIKVIKGIQKSSYYLNPYTLPAEEREAIRQALLRIEDLQRTIHTNFSIM”: the “soluble on expression in E. coli” value is “not soluble”.

“SLDLFISRHLEQLNSLSFKATPLFEHKAQFYAAPSYLEKYGTPQNVEELTKHNILIWGEKPAREIKTNRGKRMSLSGNFATTNPEALFHGAKRGMGILMTNNVMIKDDLKSGALVPILPDVTADEATVYAYYPKLDYQHTRTQLFLDYLKSRLEEEKRI”: the “soluble on expression in E. coli” value is on record as “not soluble”.

Regarding “SLDPSKVTSMSAVEFTPLPTCLQHRSCDACMSSDLTFNCSWCHVLQRCSSGFDRYRQEWMDYGCAQEAEGRMCEDFQD”, the “soluble on expression in E. coli” value is on record as “soluble”.

For “SLDSNESKLKQKSPAEFFAENKNIAGFDNPGKSLYTTVRELVENALDSAESIEG”, the “soluble on expression in E. coli” value is given as “soluble”.

In the case of “SLEIERINEHTVKFYMSYGDIEDRGFDREEIWYNRERSEELFWEVMDEVHEEEEFAVEGPLWIQVQALDKGLEIIVTKAQLSKDGQKLELPIPEDKKQEPASEDLDALLDDFQKEEQAVNQEEKEQKLQFVLRFGDFEDVISLSKLNVNGSKTTLYSFENRYYLYVDFCNMTDEEVENQLSILLEYATESSISIHRLEEYGKLIISEHALETIKKHFAS”, the “soluble on expression in E. coli” value is on record as “soluble”.

In the case of “SLEQENMEQRVKHESEELLQKFKSTSNLDELIESLGGLGEEAQREAGESLEALKRPVKEMMNDENNHLPQKLHQLKEVVSQLEPDHLKQGAVKKFVNKILGRSPMEQYAQRYKTVEAQVENIIEALLTGKDKLQEDTLMLTQLKGVARERISHLEEQIEMGKQLNAMLESEMTSEEWKNNPTALKKGQQKVISRIKNMSQAIMVLQQSLASVDLIVENNEKLEEAIFNAITMTKNIITVTASIQLALGNQKKVINAVQNVNEATENMLLSNAEMLKKNTEDTLKTLEEPAIAIESFRKAYQDVFAAIELTEQSNERIVSSGKKFIAELDTLNKEMKTKLIESKSTSSS”, the “soluble on expression in E. coli” value was “soluble”.

Regarding “SLERSQVFNILRMMPKGAALHLHDIGIVTMDWLVRNVTYRPHCHICFTPRGIMQFRFAHPTPRPSEKCSKWILLEDYRKRVQNVTEFDDSLLRNFTLVTQHPEVIYTNQNVVWSKFETIFFTISGLIHYAPVFRDYVFRSMQEFYEDNVLYMEIRARLLPVYELSGEHHDEEWSVKTYQEVAQKFVETHPEFIGIKIIYSDHRSKDVAVIAESIRMAMGLRIKFPTVVAGFDLVGHEDTGHSLHDYKEALMIPAKDGVKLPYFFHAGETDWQGTSIDRNILDALMLNTTRIGHGFALSKHPAVRTYSWKKDIPIEVCPISNQVLKLVSDLRNHPVATLMATGHPMVISSDDPAMFGAKGLSYDFYEVFMGIGGMKADLRTLKQLAMNSIKYSTLLESEKNTFMEIWKKRWDKFIADVATK”, the “soluble on expression in E. coli” value is listed as “soluble”.

With “SLESYTVNRGKGVTRYDICQLPSNSPIEDDRAEEIVQVPILQDNNIKTSTDWMFFGVFDGHGGWTTSSKLRDQLIGYVINELGTIYKPVQGEENLRYVPNSATIDQAMKNGFLKLDHELVNKNIEKLLTDGNKAKAAELLMPALSGSCALLSFYDTNSQMLKVAVTGDSRAILGSFKDNHWTVRQLSIDQTGANPSEVARIISEHPNEPKVIRNGRVLGSLEPTRAFGDCRYKLPAVIQERIYKQFFGRPLPNQLKSPPYVTAEPIITTTKINPNEHDFLVMASDGLYEMLTNEEIVGLVVKWMEKADMIKPRKSWFGFGSADSKLPEVKDVTNDKALKKPLNNKLGNSFLLEDNNVSTHLIRNALSNGGSREQTSMLISIPNPVSRRYRDDLTVTVVFFGKDTKGEDENGTLEVNWNATAG”, the “soluble on expression in E. coli” value is given as “soluble”.

Regarding “SLETQQEGMDISSSLRKLGAQSKLIQTYIDQSLMSPNVQLEEVTALNTNQFLIKQDMKEWSSELYPQLILLNSKSKGFVTKFNSYYPTLKSFVDNKEDREGFSDRLEVLQEMAMTNQENTQRQINELTDLKLQLDKKLKDFDTNVATAQGILSTDGTGKIDQLKNEILNTKKAIQNDLQQIALIPGALNEQGFAIFKEVYSLSKEIIEPAAQAGVAAYNKGKEINNSILEAEKKAVQEATEQGKTALEIESAKKAAREAIEKSKQGEIAAAAAAKTQEYDLMKVIDTEKIKKTFGVFAEVNKLTAEQRAYLDDLEKQNQKIYDLTTKLSIADLQKSMLLLTQNDLHTFANQIDVELDLLKRYKEDLNLIKNSITKLSTNVDTTSEQSQKDTLRQLKNVISYLEEQVYKF”, the “soluble on expression in E. coli” value is “soluble”.

For “SLFAKATRNFLREVDADGDLIAVSNLNDSDKLQLLSLVTKKKRFWCWQRPKYQFLSLTLGDVLIEDQFPSPVVVESDFVKYEGKFANHVSGTLETALGKVKLNLGGSSRVESQSSFGTLRKQEVDLQQLIRDSAERTINLRNPVLQQVLEGRNEVLCVLTQKITTMQKCVISEHMQVEEKCGGIVGIQTKTVQVSATEDGNVTKDSNVVLEIPAATTIAYGVIELYVKLDGQFEFCLLRGKQGGFENKKRIDSVYLDPLVFREFAFIDMPDAAHGISSQDGPLSVLKQATLLLERNFHPFAELPEPQQTALSDIFQAVLFDDELLMVLEPVCDDLVSGLSPTVAVLGELKPRQQQDLVAFLQLVGCSLQGGCPGPEDAGSKQLFMTAYFLVSALAEMPDSAAALLGTCCKLQIIPTLCHLLRALSDDGVSDLEDPTLTPLKDTERFGIVQRLFASADISLERLKSSVKAVILKDSKVFPLLLCITLNGLCALGREHSEG”, the “soluble on expression in E. coli” value is “not soluble”.

Take “SLFKTKWFAREARSHAITDEELCRAILETEQGKADALGGGVFKKRLHQNRERAIILAKGVSNWFYTFLYAKQDMSNINSQELAGFREIAKHYAFLTKAQLTAMINTKELTEICYDCKN”: the “soluble on expression in E. coli” value is on record as “not soluble”.

For the sequence “SLGKEVATRATNDERCKILEQRLEQGMVFTEYERILKKRLVDGECSTARLPENAERNRFQDVLPYDDARVELVPTKENNTGYINASHIKVSVSGIEWDYIATQGPLQNTCQDFWQMVWEQGIAIIAMVTAEEEGGREKSFRYWPRLGSRHNTVTYGRFKITTRFRTDSGCYATTGLKMKHLLTGQERTVWHLQYTDWPEHGCPEDLKGFLSYLEEIQSVRRHTNSTSDPQSPNPPLLVHSSAGVGRTGVVILSEIMIACLEHNEVLDIPRVLDMLRQQRMMLVQTLCQYTFVYRVLIQFLKSSRLI”, the “soluble on expression in E. coli” value was “soluble”.

Consider “SLGKILSKTAIAIVLASGLLSACTSTTDVFHNGYVMDDQSLQLIPEGSSREQVLLTMGTPSTTATFGNEVFYYISQKRVRRAAFLKPSLVEQNILAIYFNKDGVIERKANYTLQDGKVFDSISRTTPTGGKDLTFLQQLLSGGTSGANIAKS”, for which the “soluble on expression in E. coli” value is given as “soluble”.

Consider “SLGNSYAGQLKTTRFEEVLHNSIEASLRSNNLVPRPIFSQLYLEAEQQLAALEGGSRVDNEEEEEEGEGGLETNGPPNPFQLHPLPEGCCTTDGFCQAGKDLRLVSISNEPMDVPAGFLLVGVKSPSLPDHLLVCAVDKRFLPDDNGHNALLGFSGNCVGCGKKGFCYFTEFSNHINLKLTTQPKKQKHLKYYLVRNAQGTLTKGPLICWKGSEFRSRQIPASTCSSSLFPALESTAAFPSEPVPGTNPSILMGAQQAGPASDHPSLNAAMGPAVFNGKDSPKCQQLAKNNLLALPRPSALGILSNSGPPKKRHKGWSPESEG”, for which the “soluble on expression in E. coli” value is listed as “soluble”.
